According to publication PMC4813160:

Target: Isocitrate dehydrogenase (IDH) from B. longum (BlIDH) (Bifidobacterium longum subsp. infantis ATCC 15697)
Experiment: SEC; gel filtration on a 10/300 Superdex 200 column, 50 mM NaH2PO4 and 150 mM NaCl at pH 7.2; standards ovalbumin, conalbumin, aldolase, ferritin, thyroglobulin; single symmetrical peak, native mass 83 kDa against about 45 kDa for the subunit

stoichiometry N: 2
Substance: Isocitrate dehydrogenase (IDH) from B. longum (BlIDH) (enzyme)
